Tests used:
Type in all cases: cell-based
[1] = system: L363 cells; assay: JNG assay, co-culture with L363 cells; details: co-culture with L363
In short: (§1)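 Jurkat NFAT-GFP (JNG) cells stably transduced with SARs by lentivirus, with drug selection where the construct carried a resistance gene, then co-cultured with target cells at E:T ~1:2 for ~4–18 h. % GFP-positive cells measured by FACS against parental JNG; +/- to 5+ correspond to ~5–50% GFP-positive.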

[2] = system: RS;411; assay: JNG assay, co-culture with RS;411 cells; details: co-culture with RS411
In short: as §1

[3] = system: U266 cells; assay: JNG NFAT-GFP induction on co-culture with U266
[4] = system: Nalm6 cells; assay: JNG assay, co-culture with Nalm6 cells; details: co-culture with Nalm6
In short: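 NFAT-driven GFP in stably SAR-transduced Jurkat cells after coculture (E:T ~1:2; ~4–18 h), measured by flow cytometry and expressed as % GFP+ cells over parental Jurkat-NFAT-GFP cells.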

[5] = system: RAJI cells; assay: JNG assay, co-culture with RAJI cells; details: JNG cells expressing construct, co-culture with Raji
In short: as §1

[6] = system: RAJI-CD19-KO cells; assay: JNG assay, co-culture with RAJI-CD19-KO cells; details: co-culture with Raji-CD19-KO
In short: as §1

| Molecule | NFAT-GFP ASSAY: L363 [1] | NFAT-GFP ASSAY: RS411 [2] | NFAT-GFP ASSAY: U266 [3] | NFAT-GFP ASSAY: Nalm6 [4] | NFAT-GFP ASSAY: Raji [5] | NFAT-GFP ASSAY: Raji-CD19-KO [6] |
| --- | --- | --- | --- | --- | --- | --- |
| 22135 (protein) MALPVTALLLPLALLLHAARPACEVQLLESGGGLIQPGGSLRLSCAASGFTFSSHAMTWVRQAPGKGLEWVSAISGSGDYTHYADSVKGRFTISRDNSKNTVYLQMNSLRAEDSAVYYCAKDEDGGSLLGHRGQGTLVTVSSGTGGGGSGGGGSGGGGSEFDIQMTQSPSSLSASVGDRVTITCKASDHINNWLAWYQQKPGQAPKLLIYGATTLETGVPSRFSGSGSGTDYTLTISSLQPEDFATYYCQQSWNTPWTFGQGTKLEIKRLEDLKNVFPPEVAVFEPSEAEISHTQKATLVCLATGFYPDHVELSWWVNGKEVHSGVCTDPQPLKEQPALNDSRYCLSSRLRVSATFWQNPRNHFRCQVQFYGLSENDEWTQDRAKPVTQIVSAEAWGRADCGFTSESYQQGVLSATILYEILLGKATLYAVLVSALVLMAMVKRKDSRGRAKRSGSGATNFSLLKQAGDVEENPGPTSATMDWIWRILFLVGAATGAHSGPEVQLVESGGGLVQAGGSLRLSCAASGRTFSMGWFRQAPGKEREFVAAITYSGGSPYYADSVKGRFTISRDNAKNTVYLQMNSLKPEDTAVYYCAANPTYGSDWNAENWGQGTQVTVSSGSGGGGSGGGGSGGGGSFEQVQLQQPGAELVKPGASVKMSCKASGYAFSSYWINWMKQKPGQGLEWIGQIYPGDGDTNYNGKFKGRATLTADTSSSTAYMQLSSLTSEDSAVYFCARSITTVVGCAMDYWGQGTSVTVSSTRIQNPDPAVYQLRDSKSSDKSVCLFTDFDSQTNVSQSKDSDVYITDKCVLDMRSMDFKSNSAVAWSNKSDFACANAFNNSIIPEDTFFPSPESSCDVKLVEKSFETDTNLNFQNLSVIGFRILLLKVAGFNLLMTLRLWSSRAKRSGSGVKQTLNFDLLKLAGDVESNPGPSRGHMTEYKPTVRLATRDDVPRAVRTLAAAFADYPATRHTVDPDRHIERVTELQELFLTRVGLDIGKVWVADDGAAVAVWTTPESVEAGAVFAEIGPRMAELSGSRLAAQQQMEGLLAPHRPKEPAWFLATVGVSPDHQGKGLGSAVVLPGVEAAERAGVPAFLETSAPRNLPFYERLGFTVTADVEVPEGPRTWCMTRKPGA | 2+ (refer to approximately 5%, 10%, 20%, 30%, 40% and 50% GFP positive cells) | 2+ (refer to approximately 5%, 10%, 20%, 30%, 40% and 50% GFP positive cells) | 3+ (refer to approximately 5%, 10%, 20%, 30%, 40% and 50% GFP positive cells) | – | – | – |
| 22145 (protein) MALPVTALLLPLALLLHAARPACEVQLLESGGGLIQPGGSLRLSCAASGFTFSSHAMTWVRQAPGKGLEWVSAISGSGDYTHYADSVKGRFTISRDNSKNTVYLQMNSLRAEDSAVYYCAKDEDGGSLLGHRGQGTLVTVSSGTGGGGSGGGGSGGGGSEFDIQMTQSPSSLSASVGDRVTITCRASQDISNYLNWYQQKPGKAVKLLIYYTSILHSGVPSRFSGSGSGTDYTLTISSLQPEDFATYFCQQGNTLPWTFGGGTKVEIKLEGQPKANPTVTLFPPSSEELQANKATLVCLISDFYPGAVTVAWKADGSPVKAGVETTKPSKQSNNKYAASSYLSLTPEQWKSHRSYSCQVTHEGSTVEKTVAPTECSPIKTDVITMDPKDNCSKDANDTLLLQLTNTSAYYMYLLLLLKSVVYFAIITCCLLRRTAFCCNGEKSRAKRSGSGATNFSLLKQAGDVEENPGPTSATMDWIWRILFLVGAATGAHSGPQVQLQESGGGLAQAGGSLRLSCAASGRTFSMGWFRQAPGKEREFVAAITYSGGSPYYASSVRGRFTISRDNAKNTVYLQMNSLKPEDTAVYYCAANPTYGSDWNAENWGQGTQVTVSSGSGGGGSGGGGSGGGGSFEVQLVESGGGLVKPGGSLKLSCAASGFAFSIYDMSWVRQAPGKGLEWVAYISSGGGTTYYPDTVKGRFTISRDNAKNTLYLQMSSLRAEDTAMYYCARHSGYGSSYGVLFAYWGQGTLVTVSSTRASTKGPSVFPLAPSSKSTSGGTAALGCLVKDYFPEPVTVSWNSGALTSGVHTFPAVLQSSGLYSLSSVVTVPSSSLGTQTYICNVNHKPSNTKVDKRVEPKSCEVKTDSTDHVKPKETENTKQPSKSCHKPKAIVHTEKVNMMSLTVLGLRMLFAKTVAVNFLLTAKLFFLRAKRSGSGVKQTLNFDLLKLAGDVESNPGPSRGHMTEYKPTVRLATRDDVPRAVRTLAAAFADYPATRHTVDPDRHIERVTELQELFLTRVGLDIGKVWVADDGAAVAVWTTPESVEAGAVFAEIGPRMAELSGSRLAAQQQMEGLLAPHRPKEPAWFLATVGVSPDHQGKGLGSAVVLPGVEAAERAGVPAFLETSAPRNLPFYERLGFTVTADVEVPEGPRTWCMTRKPGA | – | + (refer to approximately 5%, 10%, 20%, 30%, 40% and 50% GFP positive cells) | 2+ (refer to approximately 5%, 10%, 20%, 30%, 40% and 50% GFP positive cells) | + (refer to approximately 5%, 10%, 20%, 30%, 40% and 50% GFP positive cells) | +/- (refer to approximately 5%, 10%, 20%, 30%, 40% and 50% GFP positive cells) | – |
| 22217 (protein) MALPVTALLLPLALLLHAARPACEVQLLESGGGLIQPGGSLRLSCAASGFTFSSHAMTWVRQAPGKGLEWVSAISGSGDYTHYADSVKGRFTISRDNSKNTVYLQMNSLRAEDSAVYYCAKDEDGGSLLGHRGQGTLVTVSSGTGAVVRGAEFDIQMTQSPSSLSASVGDRVTITCKASDHINNWLAWYQQKPGQAPKLLIYGATTLETGVPSRFSGSGSGTDYTLTISSLQPEDFATYYCQQSWNTPWTFGQGTKLEIKRLEDLKNVFPPEVAVFEPSKAEIAHTQKATLVCLATGFYPDHVELSWWVNGKEVHSGVCTDPQPLKEQPALNDSRYCLSSRLRVSATFWQNPRNHFRCQVQFYGLSENDEWTQDRAKPVTQIVSAEAWGRADCGITSASYHQGVLSATILYEILLGKATLYAVLVSALVLMAMVKRKDSRGRAKRSGSGATNFSLLKQAGDVEENPGPTSATMDWIWRILFLVGAATGAHSGPEVQLVESGGGLVQAGGSLRLSCAASGRTFSMGWFRQAPGKEREFVAAITYSGGSPYYADSVKGRFTISRDNAKNTVYLQMNSLKPEDTAVYYCAANPTYGSDWNAENWGQGTQVTVSSGSGGGGSGGGGSGGGGSFEQVQLQQPGAELVKPGASVKMSCKASGYAFSSYWINWMKQKPGQGLEWIGQIYPGDGDTNYNGKFKGRATLTADTSSSTAYMQLSSLTSEDSAVYFCARSITTVVGCAMDYWGQGTSVTVSSTRIQNPDPAVYQLRDSKSSDKSVCLFTDFDSQTNVSQSKDSDVYITDKCVLDMRSMDFKSNSAVAWSNKSDFACANAFNNSIIPEDTFFPSPESSCDVKLVEKSFETDTNLNFQNLSVIGFRILLLKVAGFNLLMTLRLWSSRAKRSGSGVKQTLNFDLLKLAGDVESNPGPSRGHMTEYKPTVRLATRDDVPRAVRTLAAAFADYPATRHTVDPDRHIERVTELQELFLTRVGLDIGKVWVADDGAAVAVWTTPESVEAGAVFAEIGPRMAELSGSRLAAQQQMEGLLAPHRPKEPAWFLATVGVSPDHQGKGLGSAVVLPGVEAAERAGVPAFLETSAPRNLPFYERLGFTVTADVEVPEGPRTWCMTRKPGA | 3+ (refer to approximately 5%, 10%, 20%, 30%, 40% and 50% GFP positive cells) | – | 4+ (refer to approximately 5%, 10%, 20%, 30%, 40% and 50% GFP positive cells) | 4+ (refer to approximately 5%, 10%, 20%, 30%, 40% and 50% GFP positive cells) | + (refer to approximately 5%, 10%, 20%, 30%, 40% and 50% GFP positive cells) | 3+ (refer to approximately 5%, 10%, 20%, 30%, 40% and 50% GFP positive cells) |
| 22221 (protein) MALPVTALLLPLALLLHAARPACEVQLLESGGGLIQPGGSLRLSCAASGFTFSSHAMTWVRQAPGKGLEWVSAISGSGDYTHYADSVKGRFTISRDNSKNTVYLQMNSLRAEDSAVYYCAKDEDGGSLLGHRGQGTLVTVSSGTGPQGIFGQPGYINEFDIQMTQSPSSLSASVGDRVTITCKASDHINNWLAWYQQKPGQAPKLLIYGATTLETGVPSRFSGSGSGTDYTLTISSLQPEDFATYYCQQSWNTPWTFGQGTKLEIKRLEDLKNVFPPEVAVFEPSKAEIAHTQKATLVCLATGFYPDHVELSWWVNGKEVHSGVCTDPQPLKEQPALNDSRYCLSSRLRVSATFWQNPRNHFRCQVQFYGLSENDEWTQDRAKPVTQIVSAEAWGRADCGITSASYHQGVLSATILYEILLGKATLYAVLVSALVLMAMVKRKDSRGRAKRSGSGATNFSLLKQAGDVEENPGPTSATMDWIWRILFLVGAATGAHSGPEVQLVESGGGLVQAGGSLRLSCAASGRTFSMGWFRQAPGKEREFVAAITYSGGSPYYADSVKGRFTISRDNAKNTVYLQMNSLKPEDTAVYYCAANPTYGSDWNAENWGQGTQVTVSSGSGGGGSGGGGSGGGGSFEQVQLQQPGAELVKPGASVKMSCKASGYAFSSYWINWMKQKPGQGLEWIGQIYPGDGDTNYNGKFKGRATLTADTSSSTAYMQLSSLTSEDSAVYFCARSITTVVGCAMDYWGQGTSVTVSSTRIQNPDPAVYQLRDSKSSDKSVCLFTDFDSQTNVSQSKDSDVYITDKCVLDMRSMDFKSNSAVAWSNKSDFACANAFNNSIIPEDTFFPSPESSCDVKLVEKSFETDTNLNFQNLSVIGFRILLLKVAGFNLLMTLRLWSSRAKRSGSGVKQTLNFDLLKLAGDVESNPGPSRGHMTEYKPTVRLATRDDVPRAVRTLAAAFADYPATRHTVDPDRHIERVTELQELFLTRVGLDIGKVWVADDGAAVAVWTTPESVEAGAVFAEIGPRMAELSGSRLAAQQQMEGLLAPHRPKEPAWFLATVGVSPDHQGKGLGSAVVLPGVEAAERAGVPAFLETSAPRNLPFYERLGFTVTADVEVPEGPRTWCMTRKPGA | + (refer to approximately 5%, 10%, 20%, 30%, 40% and 50% GFP positive cells) | + (refer to approximately 5%, 10%, 20%, 30%, 40% and 50% GFP positive cells) | 2+ (refer to approximately 5%, 10%, 20%, 30%, 40% and 50% GFP positive cells) | + (refer to approximately 5%, 10%, 20%, 30%, 40% and 50% GFP positive cells) | – | – |

— patent publication US20230212319A1, “NOVEL ANTIGEN BINDING DOMAINS AND SYNTHETIC ANTIGEN RECEPTORS INCORPORATING THE SAME” (University of Southern California, priority 2020, published 2023)
